Literature values as cited in patent publication EP0759087B1, “COMPOSITIONS AND METHODS FOR TARGETING GENE DELIVERY VEHICLES” (CHIRON CORPORATION, priority 1994, dated 1995).
Where no end group is shown, it is not given here.

Biological target: receptor on melanocytes (Homo sapiens, UniProt Q01726)
Settings: no source given, read-out: receptor affinity (KD)

Chain of receptor on melanocytes (Q01726 whole entry): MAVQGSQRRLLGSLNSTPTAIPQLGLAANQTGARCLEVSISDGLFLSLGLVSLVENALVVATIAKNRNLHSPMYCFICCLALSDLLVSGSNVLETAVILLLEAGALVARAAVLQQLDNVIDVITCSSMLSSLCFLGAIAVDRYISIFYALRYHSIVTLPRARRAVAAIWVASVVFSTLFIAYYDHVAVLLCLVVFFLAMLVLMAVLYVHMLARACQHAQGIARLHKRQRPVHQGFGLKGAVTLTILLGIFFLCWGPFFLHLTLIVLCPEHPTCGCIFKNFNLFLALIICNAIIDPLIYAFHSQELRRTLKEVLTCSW

Kd: ~10 nM
Substance: S-Y-S-M-E-H-F-R-W-G-L-P-V-NH2 (SYSMEHFRWGLPV-NH2) [MSH, 13 amino acid peptide that is specifically recognized by a receptor on melanocytes]
